The first experiment deals with FLAG-tagged KSHV ORF33 (Kaposi sarcoma-associated herpesvirus (KSHV)).
Sequence of FLAG-tagged KSHV ORF33 (Kaposi sarcoma-associated herpesvirus (KSHV)) (F5HEF2 whole entry): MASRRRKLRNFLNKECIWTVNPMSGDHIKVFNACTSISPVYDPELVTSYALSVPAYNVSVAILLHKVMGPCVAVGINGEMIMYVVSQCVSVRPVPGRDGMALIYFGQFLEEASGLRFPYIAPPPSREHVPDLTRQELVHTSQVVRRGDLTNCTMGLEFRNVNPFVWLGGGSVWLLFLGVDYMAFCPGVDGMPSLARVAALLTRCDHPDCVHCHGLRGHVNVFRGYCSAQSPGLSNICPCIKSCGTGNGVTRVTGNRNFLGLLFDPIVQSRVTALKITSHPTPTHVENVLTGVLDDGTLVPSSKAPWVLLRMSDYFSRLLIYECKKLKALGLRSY
Assay: not given
Details: not given
As for “TAT-C19 peptide (from UniProt F5HDE4 389-407)”, the yield of extracellular KSHV genomes (qPCR) from induced iSLK.BAC16 cells treated with the peptide, up to 200 uM, 5 days; the peptide blocks ORF45-ORF33 was 34.1 µM.

The next experiment has as its target FLAG-tagged KSHV ORF33. The experiment is described as follows: ELISA. Conditions: parent: est. 0.68; read off a plot. For orientation: ELISA stands for enzyme-linked immunosorbent assay.
“GST-tagged KSHV ORF45-C19 (from UniProt F5HDE4) C396A”: the response stood at 0.058 Absorbance.
Same read-out and setting: as for “GST-tagged KSHV ORF45-C19 (from UniProt F5HDE4) D407A”, the figure is 0.69 Absorbance; as for “GST-tagged KSHV ORF45-C19 (from UniProt F5HDE4) G397A”, 0.19 Absorbance.
“GST-tagged KSHV ORF45-C19 (from UniProt F5HDE4) L395A”: the response was determined as 0.21 Absorbance.
“GST-tagged KSHV ORF45-C19 (from UniProt F5HDE4) L406A”: the response was 0.44 Absorbance.
With “GST-tagged KSHV ORF45-C19 (from UniProt F5HDE4) N402A”, the response was found to be 0.69 Absorbance.
Consider “GST-tagged KSHV ORF45-C19 (from UniProt F5HDE4) P393A”, for which the response amounted to 0.42 Absorbance.
With “GST-tagged KSHV ORF45-C19 (from UniProt F5HDE4) P394A”, the response is 0.058 Absorbance.
On the same count and under the same terms, as for “GST-tagged KSHV ORF45-C19 (from UniProt F5HDE4) P404A”, the figure is 0.09 Absorbance; as for “GST-tagged KSHV ORF45-C19 (from UniProt F5HDE4) T392A”, 0.085 Absorbance; as for “GST-tagged KSHV ORF45-C19 (from UniProt F5HDE4) W403A”, 0.07 Absorbance.
The same measure, in the same setting: as for “GST-tagged KSHV ORF45-C19 (from UniProt F5HDE4) W405A”, the figure is 0.058 Absorbance; as for “GST-tagged KSHV ORF45-C19 (from UniProt F5HDE4) Y401A”, 0.058 Absorbance.

Source of the values: paper PMC8472245.
